Consider 3 molecules from patent publication US20020076693A1, “Novel cell surface receptor for HIV retroviruses, therapeutic and diagnostic uses” (priority 1997, published 2002).

This test has as its system HIV-1 Bal. The experiment in a line: Infection of human monocyte-derived macrophages by HIV-1 (p24). Format: cell-based. Conditions: HIV-1 BaL (TASP also Ada); p24 in supernatant. How it is done: Macrophages are infected with BaL or Ada HIV-1 viruses, in the presence of 2 μM, 1 μM or 0.1 μM of 5[Kψ (CH2N)PR]-TASP. Cells are preincubated during 30 min at 4° C. in the presence of 5[Kψ (CH2N)PR]-TASP before adding the virus. Every 3 days interval, the whole culture supernatant is collected and is replaced by RPMI 1640 culture medium supplemented with 20% fetal calf serum (FCS), 1% antibiotics, 1% glutamine, in addition to 5[Kψ (CH2N)PR]-TASP that is kept present in the culture medium until day 14 after in vitro infection. Virus production is quantitated by titration of p24 protein in the culture supernatant at different times (days) after in vitro infection. Each value represented in the graphs represents the mean of two test samples.
Macrophages are infected by the BaL VIH-1 virus in the presence of 100 μg/ml of anti-P95, anti-P40 and anti-P30 antibody. Cells are preincubated during 30 min at 4° C. in the presence of each kind of antibody before adding the virus. The antibodies are kept present in the culture medium during the whole infection period of time. The experimental conditions are identical to those detailed in 4 +L4. The results are representative of two independent experiments.
Cells are preincubated during 30 min at 4° C. in the presence of the different molecules either alone or in association before adding the virus. Every three days period, the whole culture supernatant is collected and is replaced by RPMI 1640 culture medium supplemented with 20% fetal calf serum (FCS), 1% antibiotics, 1% glutamine, in addition to each tested molecule. Virus production is quantitated by titration of p24 protein in the culture supernatant at different times (days) after in vitro infection. Every value reprented in the graphs represents the mean of two test samples.

B1: Rantes: β chemokine, natural ligand of CCR5 (protein, UniProt P13501 24-91, looked up)
C-C motif chemokine 5: SPYSSDTTPCCFAYIARPLPRAHIKEYFYTSGKCSNPAVVFVTRKNRQVCANPEKKWVREYINSLEMS
Consider B1, for which the “effect on infection of human macrophages by HIV-1” value (“effect on infection” for short) is recorded as “inhibit”.

B2: MIP-1α: β chemokine (protein, UniProt P10147 24-92, looked up)
C-C motif chemokine 3: SLAADTPTACCFSYTSRQIPQNFIADYFETSSQCSKPGVIFLTKRSRQVCADPSEEWVQKYVSDLELSA
Take B2: the “effect on infection” value is on record as “weaker inhibitory effect”.

B3: MIP-1β: β chemokine (protein, UniProt P13236 24-92, looked up)
C-C motif chemokine 4: APMGSDPPTACCFSYTARKLPRNFVVDYYETSSLCSQPAVVFQTKRSKQVCADPSESWVQEYVYDLELN
Take B3: the “effect on infection” value is recorded as “inhibit”.
